We go through two molecules from publication PMC9729238 (Communications Biology, 2022).

Usually stoichiometry N stands for the number of molecules, sites or subunits per partner or assembly. The IC50 is the midpoint of a concentration-inhibition curve. A higher IC50 goes with weaker potency in that assay.

The target in experiment [1] is Chimera of the α7-nAChR extracellular domain with acetylcholine-binding protein (α7-ECD) (human α7-nAChR / Lymnaea stagnalis AChBP chimera). The experiment in a line: cryo-EM structure.
For experiment [2], the target named is T1, Nicotinic acetylcholine receptor of α7 type (α7-nAChR) expressed in HEK293 cells (UniProt P36544 23-502).
T1 construct: also called full-length α7 receptor; α7 receptor
Kind of experiment: flow cytometry on cells. The settings on record: one partner purified. In general terms: Flow cytometry measures light scatter and fluorescence of single cells or particles in a stream.

In experiment [1], “Chimera of the α7-nAChR extracellular domain with acetylcholine-binding protein (α7-ECD) (domain or fragment)” yielded a stoichiometry N of 5.

B1: Weak toxin from Naja kaouthia venom (WTX), recombinant analog (natural protein)
chain: MLTCLNCPEMFCGKFQICRNGEKICFKKLHQRRPLSWRYIRGCADTCPVGKPYEMIECCSTDKCNR
modifications: disulfide (positions not given here); also: five disulfide bonds, pairing not given here
On to B1, for which, in experiment [2], the IC50 worked out at 26 ± 4 µM.
